The labels stand for the following.
B1: GST-UVRAG FL (natural protein)
chain: MSASASVGGPVPQPPPGPAAALPPGSAARALHVELPSQQRRLRHLRNIAARNIVNRNGHQLLDTYFTLHLCSTEKIYKEFYRSEVIKNSLNPTWRSLDFGIMPDRLDTSVSCFVVKIWGGKENIYQLLIEWKVCLDGLKYLGQQIHARNQNEIIFGLNDGYYGAPFEHKGYSNAQKTILLQVDQNCVRNSYDVFSLLRLHRAQCAIKQTQVTVQKIGKEIEEKLRLTSTSNELKKKSECLQLKILVLQNELERQKKALGREVALLHKQQIALQDKGSAFSAEHLKLQLQKESLNELRKECTAKRELFLKTNAQLTIRCRQLLSELSYIYPIDLNEHKDYFVCGVKLPNSEDFQAKDDGSIAVALGYTAHLVSMISFFLQVPLRYPIIHKGSRSTIKDNINDKLTEKEREFPLYPKGGEKLQFDYGVYLLNKNIAQLRYQHGLGTPDLRQTLPNLKNFMEHGLMVRCDRHHTSSAIPVPKRQSSIFGGADVGFSGGIPSPDKGHRKRASSENERLQYKTPPPSYNSALAQPVTTVPSMGETERKITSLSSSLDTSLDFSKENKKKGEDLVGSLNGGHANVHPSQEQGEALSGHRATVNGTLLPSEQAGSASVQLPGEFHPVSEAELCCTVEQAEEIIGLEATGFASGDQLEAFNCIPVDSAVAVECDEQVLGEFEEFSRRIYALNENVSSFRRPRRSSDK
B2: His-CSNK1A1 (enzyme)
chain: MASSSGSKAEFIVGGKYKLVRKIGSGSFGDIYLAINITNGEEVAVKLESQKARHPQLLYESKLYKILQGGVGIPHIRWYGQEKDYNVLVMDLLGPSLEDLFNFCSRRFTMKTVLMLADQMISRIEYVHTKNFIHRDIKPDNFLMGIGRHCNKLFLIDFGLAKKYRDNRTRQHIPYREDKNLTGTARYASINAHLGIEQSRRDDMESLGYVLMYFNRTSLPWQGLKAATKKQKYEKISEKKMSTPVEVLCKGFPAEFAMYLNYCRGLRFEEAPDYMYLRQLFRILFRTLNHQYDYTFDWTMLKQKAAQQAASSSGQGQQAQTPTGKQTDKTKSNMKGF
B3: GST-UVRAG C-terminal fragment (501–699 aa) (domain or fragment)
chain: KGHRKRASSENERLQYKTPPPSYNSALAQPVTTVPSMGETERKITSLSSSLDTSLDFSKENKKKGEDLVGSLNGGHANVHPSQEQGEALSGHRATVNGTLLPSEQAGSASVQLPGEFHPVSEAELCCTVEQAEEIIGLEATGFASGDQLEAFNCIPVDSAVAVECDEQVLGEFEEFSRRIYALNENVSSFRRPRRSSDK

In one assay the target is His-SMURF1 (E. coli) (human, UniProt Q9HCE7-2 1-731). Kind of assay: pull-down.
For the assay “GST-UVRAG FL”, the target named is B1. Put plainly: pull-down.

With B1, the binding result with His-SMURF1 (E. coli) is given as “binds”.

For the molecule B2, in the assay with GST-UVRAG FL, the binding result is recorded as “binds”.

As for B3, the binding result in the assay with His-SMURF1 (E. coli) is reported as “binds”.

These data come from article PMC6613838 (Autophagy, 2019).
